PMC3769224

Key:
[1] = target: BRAG2^(Sec7-PH 390–763) (human)
[2] = target: BRAG2^(Sec7-PH 390–811) (human)

Row | kcat/Km of GDP/GTP exchange in solution (tryptophan fluorescence kinetics, 37°C, 1 µM Arf) [1] [M⁻¹ s⁻¹] | kcat/Km of GDP/GTP exchange in solution (tryptophan fluorescence kinetics, 37°C, 1 µM Arf) [2] [M⁻¹ s⁻¹] | kcat/Km of GDP/GTP exchange in solution (tryptophan fluorescence kinetics, 37°C, 1 µM Arf) (BRAG2^Sec7 (human)) [M⁻¹ s⁻¹] | Substance
1 | 240000 | 250000 | 20000 | Δ17Arf1 (from UniProt P84077 18-181) (domain or fragment)
2 | 50000 | 50000 | 10000 | Δ13Arf6 (from UniProt P62330 14-175) (domain or fragment)
